Measurements as given in the nanobody polyreactivity screen of Harvey et al. (2022).

Assay: yeast display, Sf9 membrane polyspecificity reagent, FACS + sequencing; frameworks hold sequencing errors
Outline: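 Genes from sorted yeast were amplified by colony PCR, read by MiSeq 2 × 250 sequencing and filtered on CDR length. These cells carried a synthetic nanobody library in Saccharomyces cerevisiae BJ5465 and were sorted by FACS into low and high (top ~1%) gates on anti-HA and streptavidin fluorescence. Polyreactivity is labelled according to the gate of origin.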

## QVQLVESGGGLVQAGGSLRLSCAASGIIFYYAMGWYRQAPGKERELVASIRWSGDSTYYADSVKGRFTISRDNAKNTVYLQMNSLKPEDTAVYYCAAEPDSAVSYVSWRDYWGQGTQVTVSS
  polyreactivity (PSR sort gate): low polyreactivity

## QVQLVESGGGLVQAGGSLRLSCAASGRTFAKYAMGWYRQAPGKERELVAAIRWSGGSTYYADSVKGRFTISRDNAKNTVYLQMNSLKPEDTAVYYCAARPALWGRYRGYDYWGQGTQVTVSS
  polyreactivity (PSR sort gate): high polyreactivity

## QVQLVESGGGLVQAGGSLRLSCAASGFIFGLYAMGWYRQAPGKETELVATISWDGGSTYYADSVKGRFTISRDNAKNTVYLQMNSLKPEDTAVYYCAATYLYRSPYVPMDYWGQGTQVTVSS
  polyreactivity (PSR sort gate): low polyreactivity

## QVQLVESGGGLVQAGGSLRLSCAASGRIIRYYAMGWYRQAPGKETELVAITSSGGRTYYADSVKGRFTISRDNAKNTVYLQMNSLKPEDTAVYYCAVDAHWPGRGERFIRLDYWGQGTQVSVSS
  polyreactivity (PSR sort gate): low polyreactivity

## QVQLVESGGGLVQAGGSLRLSCAASGGTIDYAMGWYSQAPGKERELVAAISKHGGRTYYADSVKGRFTISRDNAKYTVYLQMNSLKPEDTAVYYCAADAFRGFYWGQGTQVTVSS
  polyreactivity (PSR sort gate): high polyreactivity

## QVQLVESGGGLVQAGGSLRLSCAASGSIFNWYAMGWYRQARGKERELVAAISYSGTRTYYADSVKGRFTISRDNAKNTVNLQLNSLKPEDTAVYYCNRAYYTRWYTKFDYWGQGTQVTVSS
  polyreactivity (PSR sort gate): high polyreactivity

## QVQLVESGGGLVQAGGSLRLSCAASGSIFYINAMVWYRPAPGTERELLAAITSGGTYYADSVKGRFTISRDNAKNTVYLQMNSLKPEDTAVDYCAADREGTPLFDYWGQGTQVTVSS
  polyreactivity (PSR sort gate): low polyreactivity

## QVQLVESGGGLVQAGGSLRLSCAASGFIFDDYARGWYRQAPGKERELVADIDYSGGSRYYADSVKGRFTISRDNAKNPVYLQMTSLKPEETAVYYGTAYYGILYYLLDYWGQGTQVTVSS
  polyreactivity (PSR sort gate): high polyreactivity

## QVQLVESGGGLVQAGGSLRLSCAASGGTFGQYAMGWYRLAPGKERELVAAITSSGGRKYYADSVKGRFTISRDNAKNTVYLQMNSLKPEDTAVYYCAADVQSRYVGEGDYWGQGTQVTVSS
  polyreactivity (PSR sort gate): high polyreactivity

## QVQHVESGGGLVQAGGSLRLSCAASGLTIWYYAIGWYRQAPGKEREFVAAITSRGGDTYYADSVKGRFTISRDNAKNTVYLQLNSLKPEDTGVYYCAVRPRYYGTYRYYYWGQGTQVTVSS
  polyreactivity (PSR sort gate): high polyreactivity

## QVQLVESGGGLVQAGGSLRLSCAASGRTYKYYAMGWYRQAPGKERELVAAISRGGSTNYADSVKGRFTISRDNAKKTVYLQVNSLKPEDTAVYYCARRYIVQSGDDYWGQGTQVSVSS
  polyreactivity (PSR sort gate): low polyreactivity

## QVQLQESGGLVQAGGSLRLSCAASGSISGRNVMGWYRQAPGKEREFVASITDGSSTNYADSVKGRFTISRDNAKNTVFLQMNSLKPKDTAVYYCAAYAQGAKSFGYWGRGTQVTVSS
  polyreactivity (PSR sort gate): low polyreactivity

## QVQLVESGGGLVQAGGRLRLSCAASGIFGYNALGWYRQAPGKERELVAAITSSGTSTYYADSVKGRFTISRDNAKNTVYLQMNSLKPEDTAVYYCAALHSGTWTGYGYWGQGTQVTVSS
  polyreactivity (PSR sort gate): low polyreactivity

## QVQLVESGVGLVQAGGSLRLSCAASGSIFWQNTMGGYRPAPGKERELVATITSAGSTYYADSVKGRFTISRDNAKNTVSLQMNSLKPEDTAVYYGAKGHHPGHVFHPDYGYDYWGQGTQVTVSS
  polyreactivity (PSR sort gate): low polyreactivity

## QVQLVESAGGLVQAGGSLRLSCAASGSTFTSYAMGWYRQAPGKERELVDAITRNGGTTYYADSVKGRFTISRDNAKNTVYLQMNSLKPEDTAVYYCNAPHYYYITSDRRFDYWGQGTQVTVSS
  polyreactivity (PSR sort gate): low polyreactivity

## QVQLVESGGGLVQAGGSLRLSCAASGRIFGPYAMGWYRQAPGKERELVAAISGRGSSTYYADSVKGRFTLSRDNAKNTVYLQMNSLKPEDTAVYYCAKYPTYSYDYWGQGTQVTVSS
  polyreactivity (PSR sort gate): high polyreactivity

## QVQLVESGGGLVQAGGSLRLSCAASGLTFKRYAMGWYRQAPGKERELVASITGNGGSTYYADSVKGRFTISRDNAKNTVYLQMNSLIPEDTAVYYCNSRRYVRTSQQPLYDYWGQVTQVTVSS
  polyreactivity (PSR sort gate): high polyreactivity

## QVQLVESGGGLVQAGGSLRLSCAASGRTFGPNVIGWYRQAPGKERELVAAITSGGTTYYADSVKGRFTISRDNAKNTVYLQMNSLKPEDTAVYYCNARYVYHSSFAGFDYWGQGTQVTVSS
  polyreactivity (PSR sort gate): low polyreactivity

## QVHLVESGGGLVQAGGSLRLSCSASGRTFPYNAMGWYRQSPGKERELVAAISWRGGSTYYADSVKGRFTISRDNAKNTVYLQMNSLKPEDTAVYYCNALYPVSYDHRGDYWGQGTQVTVSS
  polyreactivity (PSR sort gate): high polyreactivity

## QVQLVESGCGLVHAGGSLRLSCAASGRILRYYAMGWYGQAPGKDRELVAVITSSDGSTYYADSVKGRITISRDNAMNTVYLQMNSLKPEDTAVYYCAAAPLWRLASWWDPYRRYDYWGQGTQVTVSS
  polyreactivity (PSR sort gate): low polyreactivity

## QVQLVESGGGLVQAGGSLRLSCAASGNIIDFYAMGWYRQAPGKERELVAAITSGGSTNFADSVKGRFTISRDNAKNTVYLQMNSLKPEDTAVYYCAARQWFSHRRWGGSRYDYWGQGTQVTVSS
  polyreactivity (PSR sort gate): high polyreactivity

## QVQLVESGGGLVQAGGSLRLSCAASGSIFRTYAKGWYRQAPGKERELVATITFGGVSTYYADSVKGRFTISRDNAKNTVYLQMNSLKPEDTAVYYCAADVYTRFWRVYRFDYWGQGTQVTVSS
  polyreactivity (PSR sort gate): low polyreactivity

## QVQLVESGGGLVQAGGRLRLSCAASGRIFIRNAMGWYRQAPGKERELVAAIDSVGSTYYADSVKGRFTISRDNAKNTVYLQMNSLKPEDTAVYYCAARGWKYASPYWRYYYWGQGTQVTVSS
  polyreactivity (PSR sort gate): low polyreactivity

## QVQLVESGGGLVQAGGSLRLSCADSGSTFAGNAMGWYRQAPGKERELVAAIVSSTGSTYYADSVKGRFTISRDNAKNTVYLQMNSLKPEDTAVYYCNKTSFLVKLDYWGQGTQVTVSS
  polyreactivity (PSR sort gate): low polyreactivity

## QVQHVESGRGLVQAGGSLRLSCASSGFTFRRNAMGWYRQAPGKVRELVAVITSSARTNYADSVKGRFTISRDNAKNTVYLQMKSLKPEDTAVYYCNAYGYRQSSSDKYGYWGQCTQVTVSS
  polyreactivity (PSR sort gate): high polyreactivity

## QVQLVESGGGLVQAGGSLRLSCAASGGIFYSYAMGWYRQAPGKERELVAAISGRGGSTYYADSVKGRFTISRDNAKNSVNLQMNSLKPEDTAVYYCNALGSQRYDYWGQGTQVTVSS
  polyreactivity (PSR sort gate): high polyreactivity

## QVQLVESGGGLVQAGGSLRLSCAASGSIFWPNVMGWYRQAPGKDRELVAAIRSDGSTYYADSVKGRFTISRDNAKNTVYLQMNSLKPEDAAVYYCATKFFRQTIYRAKYNYWGQGTQVTVSS
  polyreactivity (PSR sort gate): low polyreactivity

## QVQLVESVGGLVQAGGSLRLSCAASGFILGYNAMGWYRQAPGKERELVADITFSGGGTNYADSVKGRFTISRDNAKNTVYLQMNSLKPEDTAVYDCNAAAFSQLRVRYDYWGQGTQVTVSS
  polyreactivity (PSR sort gate): low polyreactivity

## QVQLVESGGGLVQAGGSLRLSCAASGSTFSRNAMGWYRPAPGKERELVAAISSSGGRTYYADSVKGRFTISRDNAKNTVYLQMNSLKPQDTAVYYCAADWWRVEMDYWGQGTQVTVSS
  polyreactivity (PSR sort gate): low polyreactivity

## QVQLVESGGGLFQAGGSLRLSCAASGSTFNTNAMAWYRHAPGKERELVAAISWSSTRTYYADSVKWRFTISRDNAKNTVYLQMNSLKPEDTAVYYCAAATYQSRYFQRFDYWGQGTQVTVSS
  polyreactivity (PSR sort gate): high polyreactivity

## QVQLVESGGGLVQAGGSLRLSCAASGIILGSYVMGWYRQAPGKERELVAVISFSGGSTYSADSVKGRFTISRDNAKNTVYLQMNSLKPEDTAVYYCAADNFRSYTIRSPYNYWGQGTQVTVSS
  polyreactivity (PSR sort gate): low polyreactivity

## QDQLVESGGGLVQAGGSLRLSCAASGLTFRLYAMGSYRQAPAKEREWVAAITSSSGSTYYADSVKGRFTISRDTANYTVYLQMNSLKPEDTAVYYCNAVRYTTQTPNVDYGYWGLGTQVTVSS
  polyreactivity (PSR sort gate): high polyreactivity

## QVQLVESGGGLVQAGGSLRLSCAASGSIFSYYAMGWYRQAPGKERELVAAISWGDDSTYYADSVKGRFTISRDNAKNTVYLQMNSLKPEDTAVYYCAADRVGWYRTFDYWGQGTQVTVSS
  polyreactivity (PSR sort gate): low polyreactivity

## QFQLVESGGGLVQAGGSLRLSCAASGITFGDNAMGWYRQAPGKERELVAAISWSGDRTFYADSVKGRFTISRDNAKNTVYLQMNSLKPEDTAVYYCNAEIGWHNEGRLSTYDYWGQGTQVTVSS
  polyreactivity (PSR sort gate): low polyreactivity

## QVQLVESGGGLVQAGGSLRLSCAASGTFKWYAMGWYRQAPGKERELVAVISSSSSTNYADSVKGRFTISRDNAKNTVYLQMNSLKPKIPAVYYCNAKWTTLFDYWGQGTQVTVSS
  polyreactivity (PSR sort gate): high polyreactivity

## QVQLVESGGGLVQAGGSLRLSCAASGSTFSNVMGWYRQAPGKEREFVARISKSGGSTYYADSVKGRFTISRDNAKNSVYLQMNSLKPEDTAVYYCATGRFRRTEYGGRYDYWGQGTKVTVSS
  polyreactivity (PSR sort gate): high polyreactivity

## QVQLVESGGGLVQAGGSLRLSCAASGSIFQYYAMGWYRPAARKERELVAAISWSGGSTYYADSVKGRFTISRDNAKTTVSFLMNSLKPEDTAVYYCNARLYHLDYQGRIIRYDYWGQGTQVTESS
  polyreactivity (PSR sort gate): high polyreactivity

## QVQLVESGGGLVQAGGSLRLSCASSGSTFPVYAMGWYRQPPGKDRELVAAITSGGSTYYADSVKGRFTISRDNEKNTVSLQMNIRKPEDTAVYYCNADGYLSYAFDYWGQGTQVTVSS
  polyreactivity (PSR sort gate): low polyreactivity

## QVQLVESGGGLVQAGGRLRLSCAASGRTFRGYAMGWYRQAPGKERELVAAITSGGSTNYADSVKGRFTISRDNAKYTVYLQMTSLKPEDTAVYYCAAEPYSWDTWVDYDYWGQGTQVTVSS
  polyreactivity (PSR sort gate): low polyreactivity

## QVQLVESGGGLVQAGGSLRLSCAASGSIIKRNAMGWSIQAPGKERELVASISSGGTYYADSVKGRFTISRDNAKNTVYLQMNSLKPEDSAVYYCATDRGVIYRGISGYIHYDYWGQGTQVTGSS
  polyreactivity (PSR sort gate): low polyreactivity

## QVQHVESGGGLVQAGGSLRLSCAASGRTTYTNARGWYRQAPGKERELVASISWRGGSSYYADSVKGRFTISRDNAKNTVYLQMNSLIPEDTAVYYCAASWPRWWRFGYWGQGTQVTVSS
  polyreactivity (PSR sort gate): low polyreactivity

## QVQLVESGGGLFQAGGSLRLICAASGFIFGGSDMGWYRQAPGKERELVAAISRSGGSTYYADYVKGRFTISRDNAKNTVYLQMNSMKREDTAVYYCNSVPRRQGFNYLGQGTQVTVSS
  polyreactivity (PSR sort gate): high polyreactivity

## QEQLVESGGGLVQAGGSLRLSCAATGLTITDYAMGWYRQAPGKERELDAGINTRGTSRYSADSVKGRFTISRDNAKNTVYFQMFSLNPEDTAVYYCDSEYFGYWYGIQYDYWGQGTQVTVSS
  polyreactivity (PSR sort gate): high polyreactivity
